Legend:
[1] = test system: transgenic rice seedlings; test: glyphosate resistance of the EPSPS mutant in transgenic rice plants sprayed with glyphosate (Example 8, Table 1); assay type: in vivo, rice (Nipponbare); details: for survival of transformed rice seedlings (in words): 2× and 5× glyphosate dosages; for glyphosate resistance of transformed rice seedlings (in words): glyphosate sprayed at the 1× dosage
Description: A method for detecting the glyphosate resistance of the G1 soybean EPSPS mutant (SEQ ID NO: 20), G2 soybean EPSPS mutant (SEQ ID NO: 22) and G3 soybean EPSPS mutant (SEQ ID NO: 24) provided in Example 7, the R1 rice EPSPS mutant (SEQ ID NO: 4) provided in Example 5, and the Z1 maize EPSPS mutant (SEQ ID NO: 12) provided in Example 6 in the transgenic rice is as follows:
The plasmids (containing the EPSPS mutant gene) of the monoclonal resistant bacteria of pADV5-EPSPS in Examples 1-7 were extracted by a conventional method, followed by double enzyme digestion by Pac1 and BstEII, the small fragments were collected, and then the small fragments were ligated, using T4 DNA ligase, to the pGVP1 vectors that had undergone the same double enzyme digestion, to obtain a pGVP1-EPSPS vector having a structure as shown in FIG. 8.
In the present example, the glyphosate resistance of the EPSPS mutant in transgenic rice plants were verified. An experiment method is as follows:
The transgenic rice seedlings transplanted were uniformly arranged in a same experiment area (preventing leaves from overlapping). The areas occupied by the experiment groups and the control group were calculated, and according to the areas, glyphosate was sprayed at a 1× dosage of 1060 g/hectare (0.106 g/m^2). 2× dosage was 2120 g/hectare, 5× dosage was 5300 g/hectare, and 20× dosage was 21200 g/hectare.
Commercially available Roundup® 41% ammonium glyphosate was used. Roundup® ammonium glyphosate with corresponding volumes was taken according to the above sprayed concentrations, then diluted with 20 times of volume of water, and then uniformly sprayed on the plants in the experiment groups and the control group. After leaf surfaces were dry, the plants were moved into greenhouse or outdoor to cultivate.
After the glyphosate was sprayed at the 1× dosage, growth states of the plants in each group were observed and recorded on a 10th day, and glyphosate was sprayed to the survived plants at the 2× dosage. The growth states of the plants in each group were observed and recorded 10 days later, and glyphosate was sprayed to the survived plants at the 5× dosage. The growth states of the plants in each group were observed and recorded 10 days later, and glyphosate was sprayed to the survived plants at the 20× dosage. The growth states of the plants in each group were observed and recorded 10 days later, and results are shown in Table 1, wherein corresponding numbers of plants denoted by −, +, ++ and +++ are listed, and “%++&+++” is percentage of plant having medium and high glyphosate resistance to the total number of plants observed.

double knockout E. coli = test: growth of E. coli transformed by genes encoding maize EPSPS (wild type and mutants) in culture media containing different glyphosate concentrations (Example 6, FIG. 2); assay type: cell-based
Description: E. coli transformed by the gene (SEQ ID NO: 9, which encoded the wild-type maize EPSPS represented by SEQ ID NO: 10) encoding the wild-type maize EPSPS was taken as a control group.
E. coli transformed by the gene (SEQ ID NO: 11, which encoded SEQ ID NO: 12) encoding the maize EPSPS mutant I that contained only a single mutation K94(85)I, was taken as Experiment Group 1.
E. coli transformed by the gene (with a nucleotide sequence represented by SEQ ID NO: 13, and the amino acid sequence of the encoded three-mutation maize EPSPS mutant is represented by SEQ ID NO: 14) encoding the maize EPSPS mutant that contained only three mutations G105(96)A, P110(101)S and K207(194)R but no mutation K94(85)I, was taken as Experiment Group 2.
E. coli transformed by the gene (SEQ ID NO: 15) encoding the maize EPSPS mutant (containing four mutations: K94(85)I, G105(96)A, P110(101)S and K207(194)R) provided in Example 3 was taken as Experiment Group 3.
The glyphosate resistance of the gene encoding the maize EPSPS mutant and the maize EPSPS mutant encoded thereby in the E. coli was verified by detecting the growth situation of the transformed E. coli in culture media containing different glyphosate concentrations (0, 1, 20, 50 mM). In the above, the E. coli used is double knockout E. coli.
Results are as shown in FIG. 2 (wherein Z0 represents a control group, Z1 represents Experiment Group 1, Z2 represents Experiment Group 2, and Z3 represents Experiment Group 3).

[2] = 1X dosage (1060 g/hectare glyphosate), recorded on 10th day
[3] = 2X dosage (2120 g/hectare) sprayed to plants surviving 1X, recorded 10 days later
[4] = 5X dosage (5300 g/hectare) sprayed to plants surviving 2X, recorded 10 days later
[5] = 20X dosage (21200 g/hectare) sprayed to plants surviving 5X, recorded 10 days later
[6] = culture media containing 1 mM glyphosate

| Molecule | % ++&+++ (percentage of plant having medium and high glyphosate resistance to the total number of plants observed) [1, 2] [%] | number of plants with resistance + (low glyphosate resistance) [1, 2] | number of plants with resistance ++ (medium glyphosate resistance) [1, 2] | number of plants with resistance +++ (high glyphosate resistance) [1, 2] | number of plants with resistance − (no glyphosate resistance) [1, 2] | % ++&+++ (percentage of plant having medium and high glyphosate resistance to the total number of plants observed) [1, 3] [%] | number of plants with resistance + (low glyphosate resistance) [1, 3] | number of plants with resistance ++ (medium glyphosate resistance) [1, 3] | number of plants with resistance +++ (high glyphosate resistance) [1, 3] | number of plants with resistance − (no glyphosate resistance) [1, 3] | survival of transformed rice seedlings (in words) [1] | % ++&+++ (percentage of plant having medium and high glyphosate resistance to the total number of plants observed) [1, 4] [%] | number of plants with resistance + (low glyphosate resistance) [1, 4] | number of plants with resistance ++ (medium glyphosate resistance) [1, 4] | number of plants with resistance +++ (high glyphosate resistance) [1, 4] | number of plants with resistance − (no glyphosate resistance) [1, 4] | % ++&+++ (percentage of plant having medium and high glyphosate resistance to the total number of plants observed) [1, 5] [%] | number of plants with resistance + (low glyphosate resistance) [1, 5] | number of plants with resistance ++ (medium glyphosate resistance) [1, 5] | number of plants with resistance +++ (high glyphosate resistance) [1, 5] | further results |
| --- | --- | --- | --- | --- | --- | --- | --- | --- | --- | --- | --- | --- | --- | --- | --- | --- | --- | --- | --- | --- | --- |
| Z1: maize EPSPS mutant I, SEQ ID NO: 12, containing only a single mutation K94(85)I (protein, Zea mays EPSPS mutant with mutation K94(85)I) MAVQAGAEEIVLQPIKEISGTVKLPGSKSLSNRILLLAALSEGTTVVDNLLNSEDVHYMLGALRTLGLSVEADKAAKRAVVVGCGGKFPVEDSIEEVQLFLGNAGTAMRPLTAAVTAAGGNATYVLDGVPRMRERPIGDLVVGLKQLGADVDCFLGTDCPPVRVNGIGGLPGGKVKLSGSISSQYLSALLMAAPLALGDVEIEIIDKLISIPYVEMTLRLMERFGVKAEHSDSWDRFYIKGGQKYKSPKNAYVEGDASSASYFLAGAAITGGTVTVEGCGTTSLQGDVKFAEVLEMMGAKVTWTETSVTVTGPPREPFGRKHLKAIDVNMNKMPDVAMTLAVVALFADGPTAIRDVASWRVKETERMVAIRTELTKLGASVEEGPDYCIITPPEKLNVTAIDTYDDHRMAMAFSLAACAEVPVTIRDPGCTRKTFPDYFDVLSTFVKN | 10.5 | 1 | 2 | 0 | 16 | 0.0 | 3 | 0 | 0 | 16 | some of the rice seedlings transformed by the maize EPSPS mutant Z1 survived | 0.0 | 2 | 0 | 0 | 17 | 0.0 | 0 | 0 | 0 | number of plants with resistance − (no glyphosate resistance) [1, 5]: 19; glyphosate resistance of transformed rice seedlings (in words) [1]: obviously superior to that of Z0; growth of transformed E. coli (double knockout E. coli; culture media containing 0 mM glyphosate and 1 mM glyphosate): obviously superior to that of control group (Z0); growth of transformed E. coli (double knockout E. coli; [6]): obviously superior to that of the control group (Z0) |
| Z0: wild-type maize EPSPS represented by SEQ ID NO: 10; control group of Example 6 (protein, Zea mays) MAVQAGAEEIVLQPIKEISGTVKLPGSKSLSNRILLLAALSEGTTVVDNLLNSEDVHYMLGALRTLGLSVEADKAAKRAVVVGCGGKFPVEDSKEEVQLFLGNAGTAMRPLTAAVTAAGGNATYVLDGVPRMRERPIGDLVVGLKQLGADVDCFLGTDCPPVRVNGIGGLPGGKVKLSGSISSQYLSALLMAAPLALGDVEIEIIDKLISIPYVEMTLRLMERFGVKAEHSDSWDRFYIKGGQKYKSPKNAYVEGDASSASYFLAGAAITGGTVTVEGCGTTSLQGDVKFAEVLEMMGAKVTWTETSVTVTGPPREPFGRKHLKAIDVNMNKMPDVAMTLAVVALFADGPTAIRDVASWRVKETERMVAIRTELTKLGASVEEGPDYCIITPPEKLNVTAIDTYDDHRMAMAFSLAACAEVPVTIRDPGCTRKTFPDYFDVLSTFVKN | 0.0 | 4 | 0 | 0 | 16 | 0.0 | 0 | 0 | 0 | 20 | no rice transformed by the wild-type maize EPSPS Z0 survived | 0.0 | 0 | 0 | 0 | 20 | 0.0 | 0 | 0 | 0 | number of plants with resistance − (no glyphosate resistance) [1, 5]: 20; glyphosate resistance of transformed rice seedlings (in words) [1]: no plant having medium or high glyphosate resistance; growth of transformed E. coli (double knockout E. coli; [6]): weak |

Source: patent US11591580B2, “K85 mutation-containing plant EPSPS mutant, and encoding gene and application thereof” (GEVOTO LLC, priority 2017, dated 2023)
